# Patent US20190322765A1 (Hoffmann-La Roche, published 2019)
# Values joined by “and” are separate entries in the source; they are usually repeats but may differ in a detail not shown here. Identical values can stand only once.
# B1: MHLG1-KV9 Fab-IL-2 qm-Fab (other)
# chain: EVQLVESGGGLVKPGGSLRLSCAASGFTFSNYWMNWVRQAPGKGLEWVAEIRLKSNNFGRYYAASVKGRFTISRDDSKNTLYLQMNSLKTEDTAVYYCTTYGNYVGHYFDHWGQGTTVTVSSASTKGPSVFPLAPSSKSTSGGTAALGCLVKDYFPEPVTVSWNSGALTSGVHTFPAVLQSSGLYSLSSVVTVPSSSLGTQTYICNVNHKPSNTKVDKKVEPKSCDSGGGGSGGGGSGGGGAPASSSTKKTQLQLEHLLLDLQMILNGINNYKNPKLTRMLTAKFAMPKKATELKHLQCLEEELKPLEEVLNGAQSKNFHLRPRDLISNINVIVLELKGSETTFMCEYADETATIVEFLNRWITFAQSIISTLTSGGGGSGGGGSGGGGEVQLVESGGGLVKPGGSLRLSCAASGFTFSNYWMNWVRQAPGKGLEWVAEIRLKSNNFGRYYAASVKGRFTISRDDSKNTLYLQMNSLKTEDTAVYYCTTYGNYVGHYFDHWGQGTTVTVSSASTKGPSVFPLAPSSKSTSGGTAALGCLVKDYFPEPVTVSWNSGALTSGVHTFPAVLQSSGLYSLSSVVTVPSSSLGTQTYICNVNHKPSNTKVDKKVEPKSCD
# light: DIQLTQSPSFLSASVGDRVTITCKASQNVDTNVAWYQQKPGQAPRPLIYSASYRYTGVPSRFSGSGSGTEFTLTISSLQPEDFATYYCQQYNSYPLTFGGGTKVEIKRTVAAPSVFIFPPSDEQLKSGTASVVCLLNNFYPREAKVQWKVDNALQSGNSQESVTEQDSKDSTYSLSSTLTLSKADYEKHKVYACEVTHQGLSSPVTKSFNRGEC
# notes: Fab-IL-2-Fab immunoconjugate against MCSP with quadruple mutant IL-2; also called MHLG1 KV9 MCSP-targeted Fab-IL2QM-Fab
# B2: 29B11 Fab-IL-2 qm-Fab (other)
# chain: EVQLLESGGGLVQPGGSLRLSCAASGFTFSSYAMSWVRQAPGKGLEWVSAIIGSGGITYYADSVKGRFTISRDNSKNTLYLQMNSLRAEDTAVYYCAKGWFGGFNYWGQGTLVTVSSASTKGPSVFPLAPSSKSTSGGTAALGCLVKDYFPEPVTVSWNSGALTSGVHTFPAVLQSSGLYSLSSVVTVPSSSLGTQTYICNVNHKPSNTKVDKKVEPKSCDSGGGGSGGGGSGGGGAPASSSTKKTQLQLEHLLLDLQMILNGINNYKNPKLTRMLTAKFAMPKKATELKHLQCLEEELKPLEEVLNGAQSKNFHLRPRDLISNINVIVLELKGSETTFMCEYADETATIVEFLNRWITFAQSIISTLTSGGGGSGGGGSGGGGEVQLLESGGGLVQPGGSLRLSCAASGFTFSSYAMSWVRQAPGKGLEWVSAIIGSGGITYYADSVKGRFTISRDNSKNTLYLQMNSLRAEDTAVYYCAKGWFGGFNYWGQGTLVTVSSASTKGPSVFPLAPSSKSTSGGTAALGCLVKDYFPEPVTVSWNSGALTSGVHTFPAVLQSSGLYSLSSVVTVPSSSLGTQTYICNVNHKPSNTKVDKKVEPKSCD
# light: EIVLTQSPGTLSLSPGERATLSCRASQSVTSSYLAWYQQKPGQAPRLLINVGSRRATGIPDRFSGSGSGTDFTLTISRLEPEDFAVYYCQQGIMLPPTFGQGTKVEIKRTVAAPSVFIFPPSDEQLKSGTASVVCLLNNFYPREAKVQWKVDNALQSGNSQESVTEQDSKDSTYSLSSTLTLSKADYEKHKVYACEVTHQGLSSPVTKSFNRGEC
# notes: Fab-IL-2-Fab immunoconjugate against FAP with quadruple mutant IL-2
# What was measured:
# [1] = target: T1, human IL-2R α-subunit, monomeric, with AcTev cleavage site and Avi His tag (human); assay: SPR, receptor on CM5, 25°C, kinetic
# T1 construct: also called Hu IL-2R α; CD25
# T1 chain: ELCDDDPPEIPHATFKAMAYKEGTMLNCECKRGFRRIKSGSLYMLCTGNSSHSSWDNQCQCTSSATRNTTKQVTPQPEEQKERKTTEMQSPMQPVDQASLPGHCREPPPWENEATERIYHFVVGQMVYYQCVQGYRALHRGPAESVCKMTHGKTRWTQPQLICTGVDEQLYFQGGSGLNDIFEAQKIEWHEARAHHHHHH
# [2] = target: T2, human IL-2R βγ heterodimer, subunit-Fc knobs-into-holes fusion (human); assay: SPR, receptor on CM5, 25°C, kinetic
# T2 construct: The entries may hold a leader peptide; also called Hu IL-2R βγ; human IL2-R β knob γ hole heterodimer
# human FAP-His = target: T3, human FAP-His (human, UniProt Q12884 27-760); assay: SPR bridging: construct captured on immobilized human IL-2R βγ, human FAP analyte, 1:1 fit, 25°C
# T3 construct: also called Hu FAP; His-tagged human FAP; not shown: His tag
# [3] = target: T2, human IL-2R βγ heterodimer, subunit-Fc …; assay: SPR, receptor on CM5, 37°C, 1:1 fit
# [4] = target: T4, cynomolgus IL-2R βγ heterodimer (β knob γ hole Fc fusion) (cynomolgus); assay: SPR, receptor on CM5, 37°C, 1:1 fit
# T4 construct: also called Cyno IL-2R βγ
# [5] = target: T5, murine IL-2R βγ heterodimer (β knob γ hole Fc fusion) (murine, UniProt P16297 27-240; P34902 23-263); assay: SPR, receptor on CM5, 37°C, 1:1 fit
# T5 construct: also called Mu IL-2R βγ; mouse IL-2R βγ heterodimer; not shown: Fc knob/hole part
# T5 sequence (looked up) 1: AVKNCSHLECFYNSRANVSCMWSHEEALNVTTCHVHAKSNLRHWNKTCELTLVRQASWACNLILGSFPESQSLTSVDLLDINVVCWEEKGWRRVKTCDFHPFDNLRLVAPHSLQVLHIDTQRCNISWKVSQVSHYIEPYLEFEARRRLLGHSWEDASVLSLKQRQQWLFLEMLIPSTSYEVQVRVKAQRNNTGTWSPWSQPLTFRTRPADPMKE
# T5 sequence (looked up) 2: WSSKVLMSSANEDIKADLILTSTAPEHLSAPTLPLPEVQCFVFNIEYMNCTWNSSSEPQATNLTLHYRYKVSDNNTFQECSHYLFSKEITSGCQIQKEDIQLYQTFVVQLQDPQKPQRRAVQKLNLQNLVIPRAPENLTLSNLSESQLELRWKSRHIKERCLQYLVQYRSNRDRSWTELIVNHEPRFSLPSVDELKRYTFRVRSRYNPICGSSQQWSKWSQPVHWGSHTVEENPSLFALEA
# [6] = target: T6, human DPPIV on transfected HEK 293 cells (human, UniProt P27487 1-766); assay: FACS on HEK 293-human DPPIV cells, with HEK mock-transfected cells, cells only and sec. antibody as controls; concentration not shown
# T6 construct: whole, on cells; also called CD26
# [7] = target: T7, cynomolgus IL-2R α-subunit, recombinant monomeric (cynomolgus, UniProt H6WS54 22-240); assay: SPR, receptor on CM5, 25°C
# T7 construct: also called Cyno IL-2R α
# T7 sequence: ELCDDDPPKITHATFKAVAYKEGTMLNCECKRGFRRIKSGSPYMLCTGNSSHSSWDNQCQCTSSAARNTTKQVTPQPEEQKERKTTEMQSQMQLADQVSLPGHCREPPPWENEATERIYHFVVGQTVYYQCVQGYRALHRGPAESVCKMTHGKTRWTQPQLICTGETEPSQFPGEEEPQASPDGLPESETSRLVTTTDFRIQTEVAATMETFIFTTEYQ
# [8] = target: T1, human IL-2R α-subunit, monomeric, with …; assay: SPR, receptor on CM5, 25°C
# [9] = target: T8, murine IL-2R α-subunit, recombinant monomeric (murine, UniProt P01590 22-236, limits assumed); assay: SPR, receptor on CM5, 25°C
# T8 construct: also called Mu IL-2R α
# T8 sequence (looked up): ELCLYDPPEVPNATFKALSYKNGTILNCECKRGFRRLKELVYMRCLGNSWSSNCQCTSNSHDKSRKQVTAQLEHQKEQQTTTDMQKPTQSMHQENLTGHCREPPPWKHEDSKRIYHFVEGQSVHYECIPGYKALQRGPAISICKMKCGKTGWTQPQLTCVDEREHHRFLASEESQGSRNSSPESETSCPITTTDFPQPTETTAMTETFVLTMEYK
# [10] = target: T9, human FAP expressed on stably transfected HEK293 cells (human, UniProt Q12884 1-760); assay: FACS on FAP-expressing HEK cells
# T9 construct: whole, on cells
# [11] = target: FAP on GM05389 fibroblasts; assay: FACS on GM05389 fibroblasts, surface-bound construct detected with secondary antibody after the times shown (internalization analysis); concentration not shown
# [12] = target: T2, human IL-2R βγ heterodimer, subunit-Fc …; assay: SPR, receptor on CM5, 25°C, 1:1 fit
# [13] = target: T4, cynomolgus IL-2R βγ heterodimer (β knob …); assay: SPR, receptor on CM5, 25°C, 1:1 fit
# [14] = target: T5, murine IL-2R βγ heterodimer (β knob γ …); assay: SPR, receptor on CM5, 25°C, 1:1 fit
# [15] = target: T9, human FAP expressed on stably …; assay: FACS on HEK 293-human FAP cells, median fluorescence against concentration
Binder,binding result [1],Kd [2],Kd (human FAP-His) [nM],Kd [3],Kd [4],Kd [5],binding result [6],binding result [7],binding result [8],binding result [9],EC50 [10] [nM],binding result [11],Kd [12],Kd [13],Kd [14],EC50 (read off the curve) [15] [nM]
B1,no binding (tested: 33.3 nM),7.3 nM and 10.7 nM,,,,,,,,,,,,,,
B2,,,0.89,13.1 nM and 13 nM,16.7 nM and 18.1 nM,44 nM and 42 nM,no binding,no binding (tested: 25 nM),no binding (tested: 25 nM),no binding (tested: 25 nM),0.85,binds,12 nM and 7.4 nM,7.8 nM and 8.4 nM,60 nM and 63 nM,~20
